Measurements from patent US20160039904A1, “STABILIZED SINGLE HUMAN CD4 DOMAINS AND FUSION PROTEINS” (priority 2013, published 2016).

Columns and labels:
Assay in all cases: cell-based or functional assay
[1] = target: HIV-1 Env of isolate A07412VRC12A (HIV-1)
[2] = target: HIV-1 Env of isolate KNH1144.EC1 (HIV-1)
[3] = target: HIV-1 Env of isolate KNH1088.EC5 (HIV-1)
[4] = target: HIV-1 Env of isolate CM240.EC1 (HIV-1)
[5] = target: HIV-1 Env of isolate 55815.EC3 (HIV-1)
[6] = target: HIV-1 Env of isolate GS-015.EC12 (HIV-1)
[7] = target: HIV-1 Env of isolate BZ167.ec9 (HIV-1)
[8] = target: HIV-1 Env of isolate Bal.EC1 TC (HIV-1)
[9] = target: HIV-1 Env of isolate N1 1046.e3 PV (HIV-1)
[10] = target: HIV-1 Env of isolate CAM0015BBY.EC3 (HIV-1)
[11] = target: HIV-1 Env of isolate 57128.VRC18 (HIV-1)
[12] = target: HIV-1 Env of isolate PBL286.VRC36aPV (HIV-1)
[13] = target: HIV-1 Env of isolate CNE15 (HIV-1)
[14] = target: HIV-1 Env of isolate CNE58 (HIV-1)
[15] = target: HIV-1 Env of isolate CNE59 (HIV-1)
[16] = target: HIV-1 Env of isolate CH64 (HIV-1)
[17] = target: HIV-1 Env of isolate YN192.31 (HIV-1)
[18] = target: HIV-1 Env of isolate CNE11 (HIV-1)
[19] = target: HIV-1 Env of isolate AE20 (HIV-1)
[20] = target: HIV-1 Env of isolate CH70 (HIV-1)
[21] = target: HIV-1 Env of isolate CNE53 (HIV-1)
[22] = target: HIV-1 Env of isolate CNE1 (HIV-1)
[23] = target: HIV-1 Env of isolate CNE17 (HIV-1)
[24] = target: HIV-1 Env of isolate CNE47 (HIV-1)
[25] = target: HIV-1 Env of isolate CNE66 (HIV-1)
[26] = target: HIV-1 Env of isolate CNE107 (HIV-1)
[27] = target: HIV-1 Env of isolate CNE49 (HIV-1)
[28] = target: HIV-1 Env of isolate CNE68 (HIV-1)
[29] = target: HIV-1 Env of isolate CNE16 (HIV-1)
[30] = target: HIV-1 Env of isolate CH91 (HIV-1)
[31] = target: HIV-1 Env of isolate CNE40 (HIV-1)
[32] = target: HIV-1 Env of isolate CNE55 (HIV-1)
[33] = target: HIV-1 Env of isolate CNE5 (HIV-1)
[34] = target: HIV-1 Env of isolate CNE65 (HIV-1)
[35] = target: HIV-1 Env of isolate CH120 (HIV-1)
[36] = target: HIV-1 Env of isolate CNE3 (HIV-1)
[37] = target: HIV-1 Env of isolate CNE30 (HIV-1)
[38] = target: HIV-1 Env of isolate CNE23 (HIV-1)
[39] = target: HIV-1 Env of isolate GX2010.36 (HIV-1)
[40] = target: HIV-1 Env of isolate CNE64 (HIV-1)
[41] = target: HIV-1 Env of isolate CH110 (HIV-1)
[42] = target: HIV-1 Env of isolate CNE46 (HIV-1)
[43] = target: HIV-1 Env of isolate CNE6 (HIV-1)
[44] = target: HIV-1 Env of isolate CH117 (HIV-1)
[45] = target: HIV-1 Env of isolate CNE57 (HIV-1)
[46] = target: HIV-1 Env of isolate CH119 (HIV-1)
[47] = target: HIV-1 Env of isolate AE03 (HIV-1)
[48] = target: HIV-1 Env of isolate CNE4 (HIV-1)
[49] = target: HIV-1 Env of isolate CNE14 (HIV-1)
[50] = target: HIV-1 Env of isolate CH114 (HIV-1)
[51] = target: HIV-1 Env of isolate CNE20 (HIV-1)
[52] = target: HIV-1 Env of isolate CNE7 (HIV-1)
[53] = target: HIV-1 Env of isolate CNE9 (HIV-1)
[54] = target: HIV-1 Env of isolate Bal (HIV-1)
[55] = target: HIV-1 Env of isolate NL4-3 (HIV-1)
[56] = target: HIV-1 Env of isolate JRFL (HIV-1)
[57] = target: HIV-1 Env of isolate IIIB (HIV-1)
[58] = target: HIV-1 Env of isolate R2 (HIV-1)
[59] = target: HIV-1 Env of isolate Z2Z6 (HIV-1)
[60] = target: HIV-1 Env of isolate GXE (HIV-1)
[61] = target: HIV-1 Env of isolate 89.6 (HIV-1)
[62] = target: HIV-1 Env of isolate 92UG037.8 (HIV-1)
[63] = target: HIV-1 Env of isolate GXC (HIV-1)
[64] = target: HIV-1 Env of isolate CM243 (HIV-1)
[65] = target: HIV-1 Env of isolate JRCSF (HIV-1) (UniProt P20871)
Sequence of HIV-1 Env of isolate JRCSF (HIV-1) (P20871 32-848 limits assumed): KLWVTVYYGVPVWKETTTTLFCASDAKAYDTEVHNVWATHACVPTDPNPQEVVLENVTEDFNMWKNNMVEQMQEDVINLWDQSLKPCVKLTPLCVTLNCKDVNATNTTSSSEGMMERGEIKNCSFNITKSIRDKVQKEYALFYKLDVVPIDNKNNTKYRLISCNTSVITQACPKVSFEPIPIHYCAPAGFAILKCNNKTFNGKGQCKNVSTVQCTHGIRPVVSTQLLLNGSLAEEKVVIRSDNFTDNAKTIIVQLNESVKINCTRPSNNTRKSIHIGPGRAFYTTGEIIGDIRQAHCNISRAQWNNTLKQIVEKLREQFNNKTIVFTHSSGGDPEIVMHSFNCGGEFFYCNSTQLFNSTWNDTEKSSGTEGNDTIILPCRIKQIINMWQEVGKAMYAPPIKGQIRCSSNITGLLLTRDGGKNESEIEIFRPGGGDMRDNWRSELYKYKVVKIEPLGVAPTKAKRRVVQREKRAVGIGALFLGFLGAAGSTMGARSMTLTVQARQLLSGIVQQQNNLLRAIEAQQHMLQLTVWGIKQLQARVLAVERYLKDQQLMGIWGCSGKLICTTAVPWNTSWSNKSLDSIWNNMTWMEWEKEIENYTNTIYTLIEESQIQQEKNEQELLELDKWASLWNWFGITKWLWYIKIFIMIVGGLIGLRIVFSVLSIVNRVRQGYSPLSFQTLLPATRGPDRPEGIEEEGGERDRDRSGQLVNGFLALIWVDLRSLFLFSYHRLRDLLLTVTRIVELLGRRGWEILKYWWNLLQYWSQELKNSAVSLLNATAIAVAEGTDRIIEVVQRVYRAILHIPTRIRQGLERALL

b12 (antibody)
IC50, neutralization in TZM-bl cell-based assay [1]: 12 nM | IC90, neutralization in TZM-bl cell-based assay [1]: > 167 nM | IC50, neutralization in TZM-bl cell-based assay [2]: > 167 nM | IC90, neutralization in TZM-bl cell-based assay [2]: > 167 nM | IC50, neutralization in TZM-bl cell-based assay [3]: 117 nM | IC90, neutralization in TZM-bl cell-based assay [3]: > 167 nM | IC50, neutralization in TZM-bl cell-based assay [4]: 82 nM | IC90, neutralization in TZM-bl cell-based assay [4]: > 167 nM | IC50, neutralization in TZM-bl cell-based assay [5]: > 167 nM | IC90, neutralization in TZM-bl cell-based assay [5]: > 167 nM | IC50, neutralization in TZM-bl cell-based assay [6]: 0.085 nM | IC90, neutralization in TZM-bl cell-based assay [6]: 1.6 nM | IC90, neutralization in TZM-bl cell-based assay [7]: > 167 nM | IC90, neutralization in TZM-bl cell-based assay [8]: 3.6 nM | IC50, neutralization in TZM-bl cell-based assay [9]: 138 nM | IC90, neutralization in TZM-bl cell-based assay [9]: > 167 nM | IC50, neutralization in TZM-bl cell-based assay [10]: 81 nM | IC90, neutralization in TZM-bl cell-based assay [10]: > 167 nM | IC90, neutralization in TZM-bl cell-based assay [11]: 30 nM | IC50, neutralization in TZM-bl cell-based assay [12]: 4 nM | IC90, neutralization in TZM-bl cell-based assay [12]: 19 nM

T20 (enfuvirtide) (peptide)
neutralization IC50 [13]: 14 nM | neutralization IC90 [13]: 157 nM | neutralization IC50 [14]: 54 nM | neutralization IC90 [14]: 745 nM | neutralization IC50 [15]: 1.4 nM | neutralization IC90 [15]: 17 nM | neutralization IC50 [16]: 3.1 nM | neutralization IC90 [16]: 25 nM | neutralization IC50 [17]: 42 nM | neutralization IC90 [17]: 336 nM | neutralization IC50 [18]: 3.5 nM | neutralization IC90 [18]: 36 nM | neutralization IC50 [19]: 212 nM | neutralization IC90 [19]: 572 nM | neutralization IC50 [20]: 65 nM | neutralization IC90 [20]: > 750 nM | neutralization IC50 [21]: 51 nM | neutralization IC90 [21]: 721 nM | neutralization IC50 [22]: 1.6 nM | neutralization IC90 [22]: 17 nM | neutralization IC50 [23]: 42 nM | neutralization IC90 [23]: 676 nM | neutralization IC50 [24]: 4.9 nM | neutralization IC90 [24]: 42 nM | neutralization IC50 [25]: 129 nM | neutralization IC90 [25]: 729 nM | neutralization IC50 [26]: 3.8 nM | neutralization IC90 [26]: 45 nM | neutralization IC50 [27]: 9.1 nM | neutralization IC90 [27]: 236 nM | neutralization IC50 [28]: 32 nM | neutralization IC90 [28]: 321 nM | neutralization IC50 [29]: 14 nM | neutralization IC90 [29]: 169 nM | neutralization IC50 [30]: 8.6 nM | neutralization IC90 [30]: 310 nM | neutralization IC50 [31]: 4.9 nM | neutralization IC90 [31]: 108 nM | neutralization IC50 [32]: 26 nM | neutralization IC90 [32]: 549 nM | neutralization IC50 [33]: 2.1 nM | neutralization IC90 [33]: 19 nM | neutralization IC50 [34]: 5.9 nM | neutralization IC90 [34]: 78 nM | neutralization IC50 [35]: 11 nM | neutralization IC90 [35]: 443 nM | neutralization IC50 [36]: 5.6 nM | neutralization IC90 [36]: 38 nM | neutralization IC50 [37]: 26 nM | neutralization IC90 [37]: 285 nM | neutralization IC50 [38]: 15 nM | neutralization IC90 [38]: 228 nM | neutralization IC50 [39]: 255 nM | neutralization IC90 [39]: > 750 nM | neutralization IC50 [40]: 1.9 nM | neutralization IC90 [40]: 16 nM | neutralization IC50 [41]: 4.3 nM | neutralization IC90 [41]: 262 nM | neutralization IC50 [42]: 26 nM | neutralization IC90 [42]: 743 nM | neutralization IC50 [43]: 1.4 nM | neutralization IC90 [43]: 15 nM | neutralization IC50 [44]: 2.3 nM | neutralization IC90 [44]: 34 nM | neutralization IC50 [45]: 2.5 nM | neutralization IC90 [45]: 24 nM | neutralization IC50 [46]: 2 nM | neutralization IC90 [46]: 25 nM | neutralization IC50 [47]: 304 nM | neutralization IC90 [47]: 510 nM | neutralization IC50 [48]: 1.7 nM | neutralization IC90 [48]: 14 nM | neutralization IC50 [49]: 9.7 nM | neutralization IC90 [49]: 305 nM | neutralization IC50 [50]: 102 nM | neutralization IC90 [50]: > 750 nM | neutralization IC50 [51]: 5.5 nM | neutralization IC90 [51]: 41 nM | neutralization IC50 [52]: 4.3 nM | neutralization IC90 [52]: 58 nM | neutralization IC50 [53]: 1.7 nM | neutralization IC90 [53]: 14 nM

2G12 (antibody)
IC50, inhibition of Env-mediated cell-cell fusion [54]: 38 nM | IC90, inhibition of Env-mediated cell-cell fusion [54]: > 67 nM | IC90, neutralization of pseudotyped HIV-1 [54]: 41 nM | IC50, neutralization of pseudotyped HIV-1 [55]: 1.3 nM | IC50, neutralization of pseudotyped HIV-1 [56]: 3 nM | IC90, inhibition of Env-mediated cell-cell fusion [56]: 67 nM | IC50, neutralization of pseudotyped HIV-1 [57]: 1.5 nM | IC90, neutralization of pseudotyped HIV-1 [57]: 9.3 nM | IC50, neutralization of pseudotyped HIV-1 [58]: 0.68 nM | IC90, neutralization of pseudotyped HIV-1 [58]: 4.6 nM | IC50, neutralization of pseudotyped HIV-1 [59]: 0.7 nM | IC50, neutralization of pseudotyped HIV-1; '-' = No significant neutralization at the highest antibody concentration (67 nM) tested [60]: > 67 nM | IC90, neutralization of pseudotyped HIV-1; '-' = No significant neutralization at the highest antibody concentration (67 nM) tested [60]: > 67 nM | IC50, neutralization of pseudotyped HIV-1 [61]: 1.3 nM | IC90, neutralization of pseudotyped HIV-1 [61]: 43 nM | IC50, neutralization of pseudotyped HIV-1 [62]: 0.53 nM | IC50, neutralization of pseudotyped HIV-1; '-' = No significant neutralization at the highest antibody concentration (67 nM) tested [63]: > 67 nM | IC90, neutralization of pseudotyped HIV-1; '-' = No significant neutralization at the highest antibody concentration (67 nM) tested [63]: > 67 nM | IC50, neutralization of pseudotyped HIV-1; '-' = No significant neutralization at the highest antibody concentration (67 nM) tested [64]: > 67 nM | IC90, neutralization of pseudotyped HIV-1; '-' = No significant neutralization at the highest antibody concentration (67 nM) tested [64]: > 67 nM | IC50, neutralization of pseudotyped HIV-1 [65]: 0.58 nM | IC90, neutralization of pseudotyped HIV-1 [65]: 9.3 nM
